Results from patent publication US20020160955A1 (published 2002).

Key:
Experiment in all cases: competitive phage ELISA
[1] = biological target: T1, IGF-I S69A (G1S-A70V background) displayed on phage (human; bacteriophage M13, UniProt P69168 267-424)
T1 chain: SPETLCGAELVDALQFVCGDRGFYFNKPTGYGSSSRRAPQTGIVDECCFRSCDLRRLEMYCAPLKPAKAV
Method: (§1) Phage particles were harvested and resuspended in PBS buffer as described in Lowman, H. B., “Phage Display of Peptide Libraries on Protein Scaffolds,” in Cabilly, S. (ed.), Combinatorial Peptide Library Protocols (Humana Press Inc.: Totowa, N.J., 1998), pp. 249-264. Then phage concentrations were normalized to yield a maximal ELISA signal of 0.2-0.4 for each mutant (Lowman, in Cabilly, S. (ed.), supra). Threefold serial dilutions of soluble competitor were prepared on non-absorbent microtiter plates (Nunc, F, 96 wells) with binding buffer (0.5% TWEEN™ 20/PBS) containing phage at the previously-determined concentrations. […] After blocking, the plates containing immobilized target were washed with 0.05% TWEEN™/PBS buffer and subsequently incubated with 80 μl/well of the premixed phage-competitor solutions for 1 hour at room temperature. After washing, bound phage was detected with 80 μl/well of a solution containing a primary rabbit anti-phage polyclonal antibody and a secondary goat anti-rabbit monoclonal antibody-horseradish peroxidase conjugate in 0.5% TWEEN 20™/PBS. o-Phenylenediamine (Sigma) and tetramethylbenzidine (Kirkegaard and Perry) were used as chromogenic substrates, resulting in product detection at 492 and 450 nm, respectively. IC₅₀ values were determined by fitting the binding data to a generic saturation curve (Lowman, in Cabilly, S. (ed.), supra). […] Numbers in Table I represent mean +standard deviation of individually assessed IC₅₀ values.
(§2) At least two different clones of every mutant were tested.

[2] = biological target: IGF-I V70A (G1S-A70V background) displayed on phage (human; bacteriophage M13, UniProt P69168 267-424)
Method: as §1, §2

[3] = biological target: T2, IGF-I E3A (G1S-A70V background) displayed on phage (human; bacteriophage M13, UniProt P69168 267-424)
T2 chain: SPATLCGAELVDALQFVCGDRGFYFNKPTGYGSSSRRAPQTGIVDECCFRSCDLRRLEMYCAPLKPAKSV
Method: as §1, §2

[4] = biological target: T3, Ala(1-3)-IGF-I displayed on phage (human; bacteriophage M13, UniProt P69168 267-424)
T3 chain: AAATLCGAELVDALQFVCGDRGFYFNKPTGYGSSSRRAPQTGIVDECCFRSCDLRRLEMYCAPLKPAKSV
Method: as §1, §2

[5] = biological target: T4, IGF-I L10A (G1S-A70V background) displayed on phage (human; bacteriophage M13)
T4 construct: monovalent M13 phage display
T4 chain: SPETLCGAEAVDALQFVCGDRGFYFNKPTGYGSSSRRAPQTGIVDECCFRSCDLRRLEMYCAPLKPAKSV
Method: as §1, §2

[6] = biological target: T5, IGF-I L14A (G1S-A70V background) displayed on phage (human; bacteriophage M13)
T5 construct: monovalent M13 phage display
T5 chain: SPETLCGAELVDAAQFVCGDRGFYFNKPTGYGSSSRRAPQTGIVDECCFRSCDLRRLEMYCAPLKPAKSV
Method: as §1, §2

[7] = biological target: T6, IGF-I F25A (G1S-A70V background) displayed on phage (human; bacteriophage M13, not fully specified; Displayed monovalently on M13 phage as a C-terminal fusion to the gene III fragment, which is left out of the letters.)
T6 construct: monovalent M13 phage display; not shown: Display carrier: M13 gene III fragment (residues 249-406) and its junction
T6 chain: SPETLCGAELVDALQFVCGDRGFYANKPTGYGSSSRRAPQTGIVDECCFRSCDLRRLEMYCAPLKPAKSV
Method: as §1, §2

[8] = biological target: T7, IGF-I G30A (G1S-A70V background) displayed on phage (human; bacteriophage M13)
T7 construct: monovalent M13 phage display; not shown: M13 gene III fragment (residues 249-406, display partner) and the junction to it
T7 chain: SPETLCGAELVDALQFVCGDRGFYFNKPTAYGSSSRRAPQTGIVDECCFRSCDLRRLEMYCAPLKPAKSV
Method: as §1, §2

[9] = biological target: T8, IGF-I S33A (G1S-A70V background) displayed on phage (human; bacteriophage M13)
T8 construct: monovalent M13 phage display; not shown: M13 gene III fragment (residues 249-406, display partner) and the junction to it
T8 chain: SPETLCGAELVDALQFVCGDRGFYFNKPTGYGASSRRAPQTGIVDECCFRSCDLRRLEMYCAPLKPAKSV
Method: as §1, §2

[10] = biological target: T9, IGF-I S35A (G1S-A70V background) displayed on phage (human; bacteriophage M13)
T9 construct: monovalent M13 phage display
T9 chain: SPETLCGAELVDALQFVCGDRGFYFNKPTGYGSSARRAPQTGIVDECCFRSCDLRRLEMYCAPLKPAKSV
Method: as §1, §2

[11] = biological target: T10, IGF-I E46A (G1S-A70V background) displayed on phage (human; bacteriophage M13)
T10 construct: monovalent M13 phage display
T10 chain: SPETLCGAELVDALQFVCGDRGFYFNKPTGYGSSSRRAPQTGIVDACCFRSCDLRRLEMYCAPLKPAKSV
Method: as §1, §2

[12] = biological target: T11, IGF-I S51A (G1S-A70V background) displayed on phage (human; bacteriophage M13)
T11 construct: monovalent M13 phage display
T11 chain: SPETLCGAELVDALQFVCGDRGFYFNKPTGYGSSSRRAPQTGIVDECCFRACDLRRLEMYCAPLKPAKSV
Method: as §1, §2

[13] = biological target: T12, IGF-I R55A (G1S-A70V background) displayed on phage (human; bacteriophage M13)
T12 construct: monovalent M13 phage display
T12 chain: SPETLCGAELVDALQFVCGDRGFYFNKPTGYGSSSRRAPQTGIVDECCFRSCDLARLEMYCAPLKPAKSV
Method: as §1, §2

[14] = biological target: T13, IGF-I L64A (G1S-A70V background) displayed on phage (human; bacteriophage M13)
T13 construct: monovalent M13 phage display; not shown: M13 gene III protein fragment (residues 249-406), the phage display carrier, and its junction to IGF-I
T13 chain: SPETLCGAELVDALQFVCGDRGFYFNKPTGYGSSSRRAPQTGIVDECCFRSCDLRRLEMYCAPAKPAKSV
Method: as §1, §2

[15] = biological target: T14, IGF-I P66A (G1S-A70V background) displayed on phage (human; bacteriophage M13)
T14 construct: monovalent M13 phage display; not shown: M13 gene III protein fragment (residues 249-406), the phage display carrier, and its junction to IGF-I
Method: as §1, §2

[16] = biological target: T15, IGF-I S1G (G1S-A70V background) displayed on phage (human; bacteriophage M13, UniProt P69168 267-424)
T15 construct: range 249-406; monovalent M13 phage display
Method: as §1, §2

B1: human IGFBP-1 (other, UniProt P08833 26-259, looked up)
chain: APWQCAPCSAEKLALCPPVSASCSEVTRSAGCGCCPMCALPLGAACGVATARCARGLSCRALPGEQQPLHALTRGQGACVQESDASAPHAAEAGSPESPESTEITEEELLDNFHLMAPSEEDHSILWDAISTYDGSKALHVTNIKKWKEPCRIELYRVVESLAKAQETSGEEISKFYLPNCNKNGFYHSRQCETSMDGEAGLCWCVYPWNGKRIPGSPEIRGDPNCQIYFNVQN
notes: secreted recombinant protein purified from conditioned medium
IC50 [1]: 12.8 nM
IC50 [2]: 19.1 nM
IC50 [3]: 278 nM
IC50 [4]: 90.4 nM
IC50 [5]: 311 nM
IC50 [6]: 36.7 nM
IC50 [7]: 181 nM
IC50 [8]: 7.1 nM
IC50 [9]: 9.1 nM
IC50 [10]: 11.7 nM
IC50 [11]: 7.9 nM
IC50 [12]: 13.4 nM
IC50 [13]: 9 nM
IC50 [14]: 12.1 nM
IC50 [15]: 9.4 nM
IC50 [16]: 11.2 nM
